# Measured values published in publication PMC4151990, “Tetrameric c-di-GMP Mediates Effective Transcription Factor Dimerization to Control Streptomyces Development” (Cell, 2014).
# Experiments:
# [1] = system: T1, His6-BldD full length (Streptomyces venezuelae), ORF:0f1775d8; assay: EMSA; settings: EMSA: 10 mM Tris pH 7.5, 1 mM EDTA, 5% glycerol, 10 mM NaCl, 1 mM MgCl2, 0.5 ug poly[d(I-C)] in 20 ul, 20 min room temperature; 5% PAGE in 0.5x TBE
# T1 sequence: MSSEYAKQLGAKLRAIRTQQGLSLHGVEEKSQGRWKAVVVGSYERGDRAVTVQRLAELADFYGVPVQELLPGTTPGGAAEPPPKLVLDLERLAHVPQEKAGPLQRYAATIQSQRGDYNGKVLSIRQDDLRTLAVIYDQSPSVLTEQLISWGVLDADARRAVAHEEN
# BldD = biological target: T2, BldD (Streptomyces venezuelae, UniProt F2RCL8); assay: fluorescence polarization; format: binding
# T2 construct: gene SVEN_1089; CTD (residues 80-166), purified from Sf9 cells
# T2 sequence (F2RCL8 80-166): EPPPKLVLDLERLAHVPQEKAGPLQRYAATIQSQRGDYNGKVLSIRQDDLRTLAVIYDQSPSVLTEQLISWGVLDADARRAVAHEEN
# [2] = biological target: His6-BldD-DBD (S. venezuelae BldD DNA-binding domain, residues 1-79) (Streptomyces venezuelae); assay: cross-linking; 10 μM protein, 1 mM DSS, no c-di-GMP; 100 mM NaH2PO4, 150 mM NaCl, pH 8, room temperature 30 min; SDS-PAGE, Coomassie
Substance,binding [1],also measured
"GTTCGAAGATGTGGCCGACGGCGTCCACCCGGAGCGGCGCTCTCCGCCGACGTTCGCGCACCGCGACCGCGCACTCACGCTACGCTCACCAGGATTCCGTCCAGGACACCCGCACCGACACACCCGACAGCAGAACGGCTCAAGGCAACGC (double strand) [whiG promoter fragment, 151 bp]",binds,–
"CTAGCCACAGACACCGCGAAAAGGGAAGAAAACCCGCTAAATGGGGCATAGCTTTCGATGAACGACAGAAGGCTCGCGTCGCTCTCCTCTGTACGCGCCCCCTCACGTAGAGTGCCGAAGGGTGCCGTCCGACCCGTAACTCTTTCGAGTGACCGTCG (double strand) [bldM promoter fragment, 158 bp]",binds,–
2′-O-(6-[Fluoresceinyl]aminohexylcarbamoyl)-cyclic diguanosine monophosphate [2′-Fluo-AHC-c-di-GMP],–,Kd (BldD): 2500 ± 600 nM
"His6-BldD-DBD (S. venezuelae BldD DNA-binding domain, residues 1-79) (domain or fragment)",–,stoichiometry N [2]: 2
